Measured values published in patent US20130171184A1.

Target: Neisseria meningitidis Hsf (Msf) of strain H44/76, expressed on meningococci (Neisseria meningitidis strain H44/76) (UniProt Q7DDJ2)
Test: ELISA, bacteria preincubated with 25 µg/ml peptide, binding to 2.5 µg/ml immobilised aVn

Sequence of Neisseria meningitidis Hsf (Msf) of strain H44/76, expressed on meningococci (Neisseria meningitidis strain H44/76) (Q7DDJ2 52-591): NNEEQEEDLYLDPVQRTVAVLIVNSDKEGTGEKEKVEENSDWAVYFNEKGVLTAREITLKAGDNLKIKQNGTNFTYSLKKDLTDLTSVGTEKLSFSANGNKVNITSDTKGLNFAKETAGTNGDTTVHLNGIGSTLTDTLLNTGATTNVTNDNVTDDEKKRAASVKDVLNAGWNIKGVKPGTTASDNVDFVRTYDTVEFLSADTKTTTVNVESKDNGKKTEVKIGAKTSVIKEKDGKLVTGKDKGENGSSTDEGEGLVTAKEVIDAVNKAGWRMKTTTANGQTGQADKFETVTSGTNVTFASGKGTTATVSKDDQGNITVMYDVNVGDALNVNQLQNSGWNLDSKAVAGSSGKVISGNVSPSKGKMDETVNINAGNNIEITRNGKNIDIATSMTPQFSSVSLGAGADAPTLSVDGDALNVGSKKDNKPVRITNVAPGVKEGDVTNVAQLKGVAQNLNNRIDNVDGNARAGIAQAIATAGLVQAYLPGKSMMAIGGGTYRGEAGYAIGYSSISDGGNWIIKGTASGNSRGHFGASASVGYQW

## biotinylated sulphated vitronectin peptide VA-26S (amino acids 43-68)
  reduction in Msf binding to aVn: 30%
